From US5304480

Legend:
[1] = system: XhoI restriction endonuclease (Xanthomonas campestris pv. holcicola ATCC 13461); test: cleavage_in_vitro; conditions: 50 mM Tris HCl pH 8.1, 10 mM MgCl2, 50 mM NaCl, 37 C; no activity detected from E. coli DH10B extracts
[2] = system: XhoII restriction endonuclease (Xanthomonas campestris pv. holcicola ATCC 13461); test: cleavage_in_vitro; conditions: 20 mM Tris HCl pH 7.4, 10 mM MgCl2, 37 C; no activity detected from E. coli DH10B extracts

Substance	activity (units per gram of cells) [1]	activity (units per gram of cells) [2]
Adenovirus-2 DNA (XhoI sites)	100000	–
phage lambda DNA (XhoII/BstYI sites)	–	10000
